From patent US20110124556 (published 2011)
Like-named read-outs stand apart in the source and are kept apart here. Blank lines part the entries; values can stand above or below the binder they belong to.

Key:
[1] = molecular target: T1, human insulin receptor (HIR) (human, UniProt P06213); test: competition
sIR = sIR (human, UniProt P06213); test: FP
sIR-Fc = sIR-Fc (human, UniProt P06213); test: competition, TR-FRET vs b-RP9
[2] = molecular target: T1, human insulin receptor (HIR); test: competition; remark: listed apart in the source
[3] = molecular target: T1, human insulin receptor (HIR); test: competition; remark: listed apart in the source
[4] = molecular target: T1, human insulin receptor (HIR); test: competition; remark: listed apart in the source

B1: S415 (peptide)
chain 1: ESFYDWFERQLGKX
chain 2: ESFYDWFERQLGKX
modifications: listing feature
- Kd [1]: 100 nM

B2: S414 (peptide)
chain 1: ESFYDWFERQLGKX
chain 2: ESFYDWFERQLGKX
modifications: not fully specified; listing feature
- IC50 (sIR): 0.2 nM
- IC50 (sIR-Fc): 184 nM

Binder: GSLDESFYDWFERQLGKK [S371 (RP9)]
- Kd [2]: 830 nM

Binder: FHENFYDWFVQRVSKK [H2C (D117)]
- IC50 [3]: 700 nM

B5: S374 (peptide)
chain 1: XGSLDESFYDWFERQLGKK
chain 2: XGSLDESFYDWFERQLGKK
modifications: not fully specified; listing feature
- Kd [2]: 180 nM

More lines, now with the values ahead:

- Kd [4]: 60 nM
B3: RB517 (protein)
chain: DYKDDDDKHLCVLEELFWGASLFGYCSGGGSGGSHLCVLEELFWGASLFGYCSGAAAGAPVPYPDPLEPRAA

- Kd [4]: 0.7 nM
B4: 539 (D8-6aa-RP9) (protein)
chain: MADYKDDDDKWLDQEWAWVQCEVYGRGCPSGGSGGSGSLDESFYDWFERQLGKKAAAGAPVPYPDPLEPRPG
